Assays:
J774 cells [1] = assay: Fluorescence microscopy: internalization of the cargo protein E7 to the cell; format: cell-based; conditions: 1.66 μM protein, J774, 37° C., 30 min, 1 hour and 2 hours, FIG. 4
Experimental: Cells J774 grown on sterile glass cover slips of 22 mm overnight at 37° C. and 5% of CO2 with RPMI 1640, 10% inactivated calf fetal serum and 2 mM de glutamine. Then, different glass cover slips incubated with 1.66 μM fusion protein LALF-E7, 1.66 μM of protein E7 and PBS (as negative control) a 37° C. per 30 min, 1 hour and 2 hours. CasKi cells (human cells expressing HPV 16) grown as positive control in the same experimental conditions.
After incubation the cells were washed briefly with PBS and fix cells by 4% paraformaldehide per 20 min at room temperature. Wash in three changes of PBS. The permeabilization of the cells was with 0.5% Tritón X-100 for 15 min a room temperature. Wash in three changes of PBS. Then, the cells were incubating for 1 hour in 1% blocking SFB in PBS at room temperature. Wash in three changes of PBS. Cells were incubated with goat IgG anti E7/HPV 16 polyclonal antibody (Santa Cruz) diluted in PBS 1:50. Wash extensively with PBS. Incubate with anti-goat-fluorescein IgG polyclonal antibody (Santa Cruz) diluted in PBS 1:50 for 45 minutes in a dark chamber. Wash extensively with PBS. Mount cover slip with aqueous mounting medium. Examine using a fluorescence microscope with appropriate filters.

J774 cells [2] = assay: Western blot: internalization of the cargo protein E7 to the cell; format: cell-based; conditions: 25 μM protein, J774, 4 hours at 37° C., FIG. 5
Experimental: The cells J774 grown overnight at 37° C. and 5% of CO2 with RPMI 1640, 10% inactivated calf fetal serum and 2 mM de glutamine. After that, the cell were aliquoted in tubes with 5×10^6 cells each and incubated with 25 μM of fusion protein LALF-E7, 25 μM of protein E7 and PBS during 4 hours at 37° C. The sedimentation of the cells was made by a centrifugation to 1000 rpm by 10 minutes. Wash pellet in three changes of PBS. Cells were ruptured in 100 μL of RIPA buffer (Promega) mixed in vortex per 10 second and 2 min in ice. The sedimentation of the broken cells was made by a centrifugation to 12000 rpm by 15 minutes. Protein concentration was determined to the cell extract and rum 10 μg of total protein in 15% polyacrilamide gel. Subsequently the gel was transferred to a nitrocellulose membrane. The membrane was incubated for 2 hours at room temperature with an IgG goat polyclonal antibody anti-E7 HPV 16 (Santa Cruz) diluted in PBS (1:100). Wash in three changes of PBS. Subsequently, the membrane was incubated for 45 minutes at room temperature and in a dark room with an anti-goat IgG peroxidase conjugate (Sigma) diluted in PBS (1:5000). Wash in three changes of PBS. Finally the ECL system from Amersham Pharmacia Biotech was used.

B1: LALF-E7: recombinant fusion of CPP LALF to E7 protein of HPV 16, cysteine per glycine in Rb site (SEQ ID N0. 9 y 10) (protein)
chain: MAEFHYRIKPTFRRLKWKYKGKFWKASHGDTPTLHEYMLDLQPETTDLYGYEQLNDSSEEEDEIDGPAGQAEPDRAHYNIVTFCCKCDSTLRLCVQSTHVDIRTLEDLLMGTLGIVCPICSQKPGSRAHHHHHH
modifications: Artificial Sequence Description Protein fusion CPP LALF-E7
internalization of E7 (fluorescent cells, anti-E7 antibody) (J774 cells [1]): fluorescent cells | detection of protein in cell extract by anti-E7 antibody (Western blot) (J774 cells [2]): recognized by the anti-E7 antibody

From patent US8673313B2, “Cell penetrating peptides and its use fused to biomolecules with therapeutic action” (priority 2007, dated 2014)
